± gives the uncertainty stated by the source.
Experiment: amyloid nucleation score (Sup35N fusion, yeast selection) (log enrichment); library NNK3; higher = more nucleation; inactive = no reads after selection
Method in brief: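 Sup35N fusions to peptides of 20 random codons were expressed in psi-negative yeast, induced 24 hours with 100 μM copper sulfate, and grown 7 days at 30°C on medium lacking adenine and uracil. Input and output plasmid inserts were sequenced by Illumina. The nucleation score is the DiMSum log enrichment of output over input reads, centred on the mode score of non-aggregating sequences. Sequences with under 100 input reads were excluded.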

Substance	amyloid nucleation score
SSFQSYYTSSDMTEF	inactive
SSISVRENYFMASRVMMVGC	0.234 ± 0.56
SSITRVEKSCIFLCTALMLR	inactive
SSKCWSTSCFFKGKSLSSLG	inactive
SSLTSNCPRKALKREVVRHW	inactive
SSMVTSLGCVLYKL	inactive
SSNLDTTVCFPVCSAPELEG	inactive
SSPSWFTYLVKQVALRSVTQ	1.55 ± 0.1
SSQLDHVRLSGYVLTLEGPF	inactive
SSRRSNYASSDPIWIVSLFG	inactive
SSRVNKGEVARLVVSIPIIH	inactive
SSSAFCGVAIRALIAGGKGY	inactive
SSSKMW	inactive
SSSQTISQGDSGHLHYKVWS	inactive
SSSTFPSSKIDYGTIR	inactive
SSVSFVITGPVAFVWNQGLV	2.56 ± 0.083
SSYIESQELHSWAVQLRLLV	inactive
STCKKNWNIARRI	inactive
STIDKCLYINIAIYAIFPDF	1.31 ± 0.12
STKSSLRYNLEQLPDLLKIV	inactive
STNGLLTSNS	inactive
STRRSYNPCYWSGLYSSIGH	inactive
STSVSLTWNPKKRLYYLLTI	inactive
STSVSYEWPDLGACIGGDFG	inactive

Substance	amyloid nucleation score
STTDRTWNGYDDILYTYLYF	inactive
STWYSRCVLALNLLLSCNRG	1.38 ± 0.13
STYGRMAR	inactive
SVGVGNIHTR	inactive
SVMLDNTVVFTIRSGHCSES	1.13 ± 0.1
SVNNVAWWHYGKMRVNFTFS	-0.552 ± 0.71
SVNWMVSKLRSPNSQGLAIE	inactive
SVRFDDAMIDGITSAYMIKY	inactive
SVRLSIVAGWFCKIWYSFLL	inactive
SVRRHSSGCMNNAL	inactive
SVRVYGDCLCECWSCYTPRT	0.502 ± 0.32
SVSGKRFDVMVLFLHSSKRL	inactive
SVSPEWYSSLLGSLCGAGFL	inactive
SVSRRGKDR	-0.237 ± 1.5
SVSVLHSYYLIYVCRDFFMK	0.865 ± 0.12
SVSVRRNYKLIFAASM	inactive
SVTFDAWYCWMN	inactive
SVTLRATGSGNRRYDAIRNY	inactive
SVTPFPIIFN	inactive
SVVVVSWTTMLNDKLDPLDG	inactive
SVVYRKDSIKQRKEFSSHAF	inactive
SVWLASCYHLIWVELGRWDI	inactive
SVWRECNGKFVSFASHFADY	inactive
SVYCCIDKLLHSAKSRLFMM	inactive

Substance	amyloid nucleation score
SVYGKFILAAVAGLRFGGLK	inactive
SWCSPNGPQGLEVCSMRPFR	inactive
SWIKEFIQFIFIEGFRC	inactive
SWLANRYMGDYIRQWVWDKL	-0.932 ± 1.8
SWMTTRKGGDVALHASLFRM	inactive
SWSFMFSFSNSATNAACLPQ	0.327 ± 0.27
SWTGCKYIQKYRCRRWCNNF	inactive
SWVTDWIL	inactive
SWVTVYTVMRVWVTFGNRRR	inactive
SWVVDITDRRSLFIDTPRFT	inactive
SYAGKGLTLQTHHDWRSGNG	inactive
SYCHRRLLSRVSLLVASSVK	inactive
SYCLTGTDSVINVIGAGPSQ	inactive
SYFSYPCCCCVVARFLNYVC	inactive
SYKGLCS	inactive
SYKMNVMT	inactive
SYMYLRGVLRYLVDMFALWI	inactive
SYNTYSVYGWGKGPRNYDWQ	inactive
SYRFYDDQSLCG	inactive
SYRPDSCRLNTMNDFSSCCS	inactive
SYRYFGGSDYRLCGGIWMLA	inactive
SYSLNNYMTKLVWIYVSWLL	inactive
SYVCIIYGNDGSLSRCKDDL	inactive
SYWRLHVIIFLWFFYLRYFN	inactive

Substance	amyloid nucleation score
TADLRRQTLGWGKFYYVSWF	inactive
TANLGRCYCKLSNFTSGWFL	inactive
TATHKLTNIPW	inactive
TAWLSSNFVSDRHCGYGSDC	inactive
TAYMNQIVNRELYP	inactive
TCACIWGVSVWCYRSQVFAQ	-0.455 ± 0.52
TCCCVYGTMIISEYFHGSNM	2.73 ± 0.056
TCFFISSIFSFDKHVIVCCA	0.536 ± 0.32
TCFVLQNKYVSRCGCWMCYS	2.12 ± 0.051
TCIQYSKFLRA	inactive
TCKVMSSGYYVLYLDVRV	inactive
TCNIFLGAPHGAVGRCCRAR	1.82 ± 0.11
TCRICTFGVWDFCRTDERRH	2.24 ± 0.069
TCSMSTARSCSHKSNRVMHW	inactive
TCWRGELMELTDMLSVALLR	inactive
TDAIVFMEHSDVGRSSLDWN	inactive
TDAYKLITFIFPCKYLVTVC	inactive
TDDAGMYDNRFQSMSDENTF	inactive
TDFDNFSDTF	inactive
TDFIIRKSYQLLEFYFY	inactive
TDGRITS	0.492 ± 0.35
TDLGSVGGW	-0.206 ± 1.5
TDRVNFSRLFSLIHDWLTPG	inactive
TDSLFGVIDHFYENRFW	-0.845 ± 1.4

Substance	amyloid nucleation score
TDVMVYHPFL	inactive
TEGLKIFDDET	inactive
TEHKVSFPHFVKYKPSLSSY	inactive
TFAMGLSARSISYCTNTRCP	0.464 ± 0.4
TFCFLQVN	inactive
TFIHRHINNTSQLPGSFMKL	inactive
TFKARSLILSLKLYANMDH	inactive
TFLLLYGIMDSNVPTVRHAL	0.846 ± 0.15
TFLVTRVPYSFF	inactive
TFQRSGT	inactive
TFSDRSFRQWVWQELSFCGS	inactive
TFSFHLCIQEPTSFDNSLHT	0.164 ± 0.36
TFSQGSWRTESSLRDGGCLD	inactive
TFVDPGRV	-0.565 ± 1.1
TFWMPD	-0.55 ± 1.3
TGCGQFH	inactive
TGFILLTTTVSAINVYQVYR	2.58 ± 0.056
TGIWSGYYKLFLSVLRGRRV	inactive
TGLLLIRIKGH	inactive
TGRLVIFTEWRLSAESSRSH	inactive
